# From US20220089766A1 (published 2022)
# How the values were obtained:
# [1] = target: T1, Monomeric human CD38 with a c-terminal myc-myc-hexahistidine tag (hCD38.mmH) (human, UniProt P28907 43-300); assay: SPR (Biacore 3000, 25 C); bsAb captured on anti-human Fc, hCD38.mmH injected; 1:1 fit
# T1 construct: also called bsAb3305; not shown: C-terminal myc-myc-hexahistidine tag
# [2] = target: T2, human CD38 on target cells (HEK293/hCD20/hCD38, MOLP8, NALM-6, NALM-6/hPD-L1) (human, UniProt P28907 1-300); assay: cell-based or functional assay
# [3] = target: T1, Monomeric human CD38 with a c-terminal …; assay: SPR (Biacore, 25 C); group summary of Table 8
# Procedure: For CD38 kinetic determinations, SPR experiments were performed using a Biacore 3000 instrument at 25° C. Antibodies were captured for 37 seconds at a flow rate of 8 uL/min on a CM5 anti-humanFc-(bsAb2567)-coupled surface. Approximately 230 RU of each antibody were captured. […] Dissociation was measured for 10 minutes. The KD and t½ were calculated by fitting the double-referenced sensorgrams to a 1:1 binding model.
# [4] = target: T2, human CD38 on target cells …; assay: cell-based or functional assay; remark: listed apart in the source
# [5] = target: T2, human CD38 on target cells …; assay: cell-based or functional assay; remark: listed apart in the source
# [6] = target: T3, Dimeric human CD28 with a c-terminal mouse Fc tag (hCD28.mFc) (human); assay: SPR (Biacore, 25 C); group summary of Table 9
# T3 construct: also called bsAb2012; Human CD28 extracellular domain (N19-P152).mFc
# Procedure: (§1) For CD28 kinetic determinations, SPR experiments were performed using a Biacore 3000 instrument at 25° C. Dimeric human CD28 with a c-terminal mouse Fc tag (hCD28.mFc, bsAb2012) were captured for 37 seconds at a flow rate of 8 uL/min on a CM5 anti-mouseFc-(GE)-coupled surface. Approximately 150 RU of hCD28.mFc were captured. […] Dissociation was measured for 10 minutes. The KD and t_{1/2} were calculated by fitting the double-referenced sensorgrams to a 1:1 binding model.
# [7] = target: T2, human CD38 on target cells …; assay: cell-based or functional assay; remark: listed apart in the source
# [8] = target: T3, Dimeric human CD28 with a c-terminal …; assay: SPR (Biacore 3000, 25 C); hCD28.mFc captured on anti-mouse Fc, bsAb injected; 1:1 fit
# Procedure: as §1
Binder,"IL2 release EC50; T cells + HEK293/hCD20/hCD38, + TAAxCD3 (bsAb1979) [2]","IL2 release EC50; T cells + MOLP8, + IgG4^P isotype control [2]","IFNγ release EC50; T cells + HEK293/hCD20/hCD38, + TAAxCD3 (bsAb1979) [4]","IFNγ release EC50; T cells + MOLP8, + TAAxCD3 (bsAb5458) [4]","IL2 release EC50; T cells + NALM-6, + Cemiplimab [5]","IL2 release EC50; T cells + NALM-6/hPD-L1, + Cemiplimab [5]","IL2 release EC50; T cells + NALM-6/hPD-L1, + IgG4^P [5]","T-cell proliferation EC50; T cells + HEK293/hCD20/hCD38, + TAAxCD3 (bsAb1979) [7]",further results
"bsAb6031 (bispecific antibody, human IgG4 S228P, kappa, also called anti-CD38×CD28 bispecific antibody) heavy 1: EVQLVESGGGLVQPGRSLRLSCAASGFTFDDYAMHWVRQAPGKGLEWVSGISWKSDNIGYADSVKGRFTISRDNAKNSLYLQMNSLRAEDTALYYCAKALGGWKFDYYYGMDVWGQGTTVTVSSASTKGPSVFPLAPCSRSTSESTAALGCLVKDYFPEPVTVSWNSGALTSGVHTFPAVLQSSGLYSLSSVVTVPSSSLGTKTYTCNVDHKPSNTKVDKRVESKYGPPCPPCPAPPVAGPSVFLFPPKPKDTLMISRTPEVTCVVVDVSQEDPEVQFNWYVDGVEVHNAKTKPREEQFNSTYRVVSVLTVLHQDWLNGKEYKCKVSNKGLPSSIEKTISKAKGQPREPQVYTLPPSQEEMTKNQVSLTCLVKGFYPSDIAVEWESNGQPENNYKTTPPVLDSDGSFFLYSRLTVDKSRWQEGNVFSCSVMHEALHNHYTQKSLSLSLGK heavy 2: EVQLVESGGGLVQPGGSLRLSCAASGFTFSRNNMHWVRQAPGKGLEYVSGISSNGGRTYYADSVKGRFTISRDNSKNTLYLQMGGLRAADMAVYFCTRDDELLSFDYWGQGTLVTVSSASTKGPSVFPLAPCSRSTSESTAALGCLVKDYFPEPVTVSWNSGALTSGVHTFPAVLQSSGLYSLSSVVTVPSSSLGTKTYTCNVDHKPSNTKVDKRVESKYGPPCPPCPAPPVAGPSVFLFPPKPKDTLMISRTPEVTCVVVDVSQEDPEVQFNWYVDGVEVHNAKTKPREEQFNSTYRVVSVLTVLHQDWLNGKEYKCKVSNKGLPSSIEKTISKAKGQPREPQVYTLPPSQEEMTKNQVSLTCLVKGFYPSDIAVEWESNGQPENNYKTTPPVLDSDGSFFLYSRLTVDKSRWQEGNVFSCSVMHEALHNRFTQKSLSLSPGK light: not shown",199 pM,653 pM,294 pM,748 pM,2440 pM,4390 pM,2640 pM,143 pM,"Kd [1]: 7080 pM; koff [1]: 0.000748 s⁻¹; kon [1]: 106000 M⁻¹ s⁻¹; t½ [1]: 15.4 min; IL2 release EC50; T cells + MOLP8, + TAAxCD3 (bsAb5458) [2]: 1020 pM; Kd [3]: < 10000 pM; IL2 release EC50; T cells + NALM-6, + IgG4^P [5]: 1680 pM; Kd [6]: < 26000 pM; T-cell proliferation EC50; T cells + MOLP8, + IgG4^P isotype control [7]: 467 pM; Kd [8]: 25900 pM; koff [8]: 0.00149 s⁻¹; kon [8]: 57400 M⁻¹ s⁻¹; t½ [8]: 7.8 min"
"bsAb7945 (bispecific antibody, human IgG4 S228P, kappa) heavy 1: QVQLVQSGAEVKKPGSSVKVSCKASGGPFRSSSFSWVRQAPGQGLEWMGGIIPILGKTNYAQKFQGRITIVTDESTTTVYMELSSLRSEDTAVFYCVRGSSLFDYWGQGTLVTVSSASTKGPSVFPLAPCSRSTSESTAALGCLVKDYFPEPVTVSWNSGALTSGVHTFPAVLQSSGLYSLSSVVTVPSSSLGTKTYTCNVDHKPSNTKVDKRVESKYGPPCPPCPAPPVAGPSVFLFPPKPKDTLMISRTPEVTCVVVDVSQEDPEVQFNWYVDGVEVHNAKTKPREEQFNSTYRVVSVLTVLHQDWLNGKEYKCKVSNKGLPSSIEKTISKAKGQPREPQVYTLPPSQEEMTKNQVSLTCLVKGFYPSDIAVEWESNGQPENNYKTTPPVLDSDGSFFLYSRLTVDKSRWQEGNVFSCSVMHEALHNHYTQKSLSLSLGK heavy 2: QVQLQESGPGLVKPSETLSLTCTVSGGSISSYYWSWIRQPPGKGLEWIGYIYYSGITHYNPSLKSRVTISVDTSKIQFSLKLSSVTAADTAVYYCARWGVRRDYYYYGMDVWGQGTTVTVSSASTKGPSVFPLAPCSRSTSESTAALGCLVKDYFPEPVTVSWNSGALTSGVHTFPAVLQSSGLYSLSSVVTVPSSSLGTKTYTCNVDHKPSNTKVDKRVESKYGPPCPPCPAPPVAGPSVFLFPPKPKDTLMISRTPEVTCVVVDVSQEDPEVQFNWYVDGVEVHNAKTKPREEQFNSTYRVVSVLTVLHQDWLNGKEYKCKVSNKGLPSSIEKTISKAKGQPREPQVYTLPPSQEEMTKNQVSLTCLVKGFYPSDIAVEWESNGQPENNYKTTPPVLDSDGSFFLYSRLTVDKSRWQEGNVFSCSVMHEALHNRFTQKSLSLSPGK light: not shown",5.02 pM,9.71 pM,123 pM,4.24 pM,98.1 pM,143 pM,169 pM,0.894 pM,"IL2 release EC50; T cells + HEK293/hCD20/hCD38, + IgG4^P isotype control [2]: 41400 pM; T-cell proliferation EC50; T cells + HEK293/hCD20/hCD38, + IgG4^P isotype control [7]: 45600 pM"
